In this test the target is HAUSP^62–205 (HAUSP TRAF domain) (UniProt Q93009). The test can be described thus: ITC.
Chain of HAUSP^62–205 (HAUSP TRAF domain) (Q93009 62-205): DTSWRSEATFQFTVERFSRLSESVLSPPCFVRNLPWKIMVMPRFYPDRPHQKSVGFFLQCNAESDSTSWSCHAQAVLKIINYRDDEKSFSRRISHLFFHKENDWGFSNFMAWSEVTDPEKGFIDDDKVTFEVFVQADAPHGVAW

Consider “p53^355–369 peptide (from UniProt P04637 355-369)”, for which the Ka was found to be 67000 M⁻¹.

On to “p53^350–364 peptide (from UniProt P04637 350-364)”, for which the Ka was determined as 65000 M⁻¹.
